The text below walks through data of article doi:10.1101/2020.12.03.410779.

The target in this test is human Retromer complex (Vps35-Vps29-Vps26A) (human) (UniProt Q96QK1). The experiment in a line: ITC.

Take “TBC domain of human TBC1D5 (from UniProt Q92609 1-795) (domain or fragment)”: the Kd is 370 nM.
